Source: patent EP1407030B1

Molecular target: plasminogen
Assay: cell-based or functional assay

“phage-displayed recombinant K2S (K2S-gp3 fusion protein on VCSM13 filamentous phage) (from UniProt P00750 209-562)” was tested, and the fibrinogen-dependent enzymatic activity (amidolytic assay with plasminogen and S-2251) was under 0.25 IU/ml.
